# Measurements taken from the RNAGym collection of RNA variant scans (doi:10.1073/pnas.2313332121).
# Fewer inactive variants are shown than the library holds.
# B1: TPR 5TU (parent)
# chain: GGAUCUUCUCGAUCUAACAAAAAAGACAAAUCUGCCACAAAGCUUGAGAGCAUCUUCGGAUGCAGAGGCGGCAGCCUUCGGUGGCGCGAUAGCGCCAACGUUCUCAACUAUGACACGCAAAACGCGUGCUCCGUUGAAUGGAGUUUAUCAUG
# Variants of: B1
# Assay: polymerase ribozyme fitness, log enrichment relative to wild type (log ratio); higher = more active; in vitro selection for triplet polymerase activity
# How it was run: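 Each subunit of a heterodimeric triplet polymerase ribozyme was mutagenized into a library by PCR, transcribed, and subjected to one round of in vitro selection, run in triplicate. Libraries were annealed with a biotinylated primer, the partner subunit and triplets, incubated frozen at −7 °C, and extended constructs were gel-excised, captured on streptavidin beads and recovered by RT-PCR. Input and output libraries were sequenced on Illumina, keeping genotypes with ≥10 input reads and ≥1 read per output. Fitness is log base 2 of genotype enrichment divided by wild-type enrichment, from inverse-variance-weighted replicate averages.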
row,Variant,polymerase ribozyme fitness (log ratio)
1,G46A G70U C85G U130A,≤ -4.2
2,A47C A60C C72G U77G C87G G88U A110U A119G A147C,≤ -4.2
3,U44A C95U A97U,≤ -4.2
4,U44A C76U C87A C105A A107G U127A U145C G152U,≤ -4.2
5,G42C U61A A64G A107G U130C,≤ -4.2
6,G42A G80C G86C,≤ -4.2
7,U44A U45A A47C G86A U130G,≤ -4.2
8,A47C A52G U53A G86A G94C,≤ -4.2
9,A47C G50A G83A,-2.44
10,A47C C72U G94U U102C,≤ -4.2
11,U44A C72A C87U C99G U135A,≤ -4.2
12,C43U G80U C93G C99G,≤ -4.2
13,A47C C96U C103A C114G C123U,≤ -4.2
14,U44A A47C U56A G84C C87G,≤ -4.2
15,U45A G81C C96G,-3.93
16,G42U C116A U135G,≤ -4.2
17,U45A A60G A66C G68C C69U,≤ -4.2
18,G46C G68A,-4.14
19,G42U A52C A66G C76A U90G C95A A106C C108G,≤ -4.2
20,C43U U45A G86A A115C C118G,≤ -4.2
21,G42A G48A U53A C76A C93G,≤ -4.2

row,Variant,polymerase ribozyme fitness (log ratio)
1,G42A G46U U55G C72G,≤ -4.2
2,G46A G71C U78A,≤ -4.2
3,C43A C54U,≤ -4.2
4,U45A G59C C85U G86A G92U U146G,≤ -4.2
5,C43U C99G,≤ -4.2
6,U45G C93U G141C,≤ -4.2
7,G46A G50C U55A U56A C87U G88U C125A G136A,≤ -4.2
8,U44C C51U G92U C96G U102G G128C,≤ -4.2
9,A47C C79G,≤ -4.2
10,G42U A73C C95U A98C U144A,≤ -4.2
11,A47C C51U A52C C75A C96U C103A A110C,≤ -4.2
12,U45A C54A,≤ -4.2
13,U45A C54U,-2.52
14,A47C G58U G92U A97U,-1.96
15,G42U G92C,-3.85
16,G42A G59U,-3.95
17,G42C A60G C79A C87U C105G C118A G124C,≤ -4.2
18,G42U C63U G68A C95U G112U U146G,≤ -4.2
19,C43A U55A G92A,≤ -4.2
20,A47C C108U U146C,-3.2
21,U45A C96G A121U,-2.93

row,Variant,polymerase ribozyme fitness (log ratio)
1,G46C A98U,-1.22
2,G46A A49C G59C U61A G86U,≤ -4.2
3,A47C C85G C96A A98G,≤ -4.2
4,G42A U55A C85U A97U G140C,≤ -4.2
5,G42C G59A C93G A106C,≤ -4.2
6,U44A G50A G65C C76G U90G,≤ -4.2
7,G46C A47U U53A C85U U130C A150G,≤ -4.2
8,G46C A91G,-3.27
9,G46U U53A U90C,≤ -4.2
10,G42C G46A C75G A91G U102G G133U G152A,≤ -4.2
11,U44C U56A,-3
12,U44A A47C C57U G128C,≤ -4.2
13,C43U G88A G94A A122G,≤ -4.2
14,U45A A49U C75A G83C C87G G117U U127A U139A G152U,≤ -4.2
15,G42U A91U,≤ -4.2
16,A47C G58U C99A,-2.46
17,A47C A115C U144G,-0.866
18,U45G A49C G62C G94C C118G,≤ -4.2
19,G46A C54A C57G G74U C87A A121G,≤ -4.2
20,C43G A97U C123U C125A U148G,≤ -4.2
21,U45A U61A,-4.16

row,Variant,polymerase ribozyme fitness (log ratio)
1,C43U G71A U82A C95A A97U C103A G126A C149U,≤ -4.2
2,G42C U111A,≤ -4.2
3,G46A G86A C87G U104G C116U C149U,≤ -4.2
4,C43U C87U,-3.73
5,A47C,-0.224
6,G46C C54A C96G C103G G141U,≤ -4.2
7,G46A G88U C132U,≤ -4.2
8,U44A G50U C75G C79U C87A C125U,≤ -4.2
9,G42A U61A G86A,≤ -4.2
10,U45A C79U C103A C118U,≤ -4.2
11,G46A C93U C129G,≤ -4.2
12,G46U U144C,-0.573
13,U45G G59A G84A A89G C118U,-3.18
14,G46A A49C G71U G86A C96U A97U,≤ -4.2
15,C43U C54A C79U A91U A142U G143A,≤ -4.2
16,G46C A47C C72U C103A,≤ -4.2
17,G46C C85U,-1.16
18,G42A G83C C96G C105U A110G U139C,≤ -4.2
19,U44G C57U A91U U109C,≤ -4.2
20,G46C G48A C76G U78G G83A G143C,-4.2
